Reference: IntAct's records for PubMed 16525507

B1: Type II secretion system protein E (Xanthomonas campestris pv. campestris), P31742 (parent)
chain: MEQRSAETRIVEALLERRRLKDTDLVRARQLQAESGMGLLALLGRLGLVSERDHAETCAEVLGLPLVDARQLGDTPPEMLPEVQGLSLRFLKQFHLCPVGERDGRLDLWIADPYDDYAIDAVRLATGLPLLLQVGLRSEIDDLIERWYGQGRSAMGTIVETADGDASSTDDIEALRDLASEAPVIRLVNLVIQHAVELRASDIHIEPFESRLKVRYRVDGVLVEGESPPAKLTAAVISRIKIMAKLNIAERRLPQDGRIMLRVQGKELDLRVSTVPTAHGESVVMRLLDRETVVFDFYKLGFTEDFLPQFRKVLEQPHGIMLVTGPTGSGKTTTLYTALSQLNTSDVKIITVEDPVEYQIEGINQIQAKPQIGLDFANALRSIVRQDPDIIMIGEMRDLETARIAIQSALTGHLVLSTLHTNNAAGGITRLLDMGVEDYLLTSTINGILAQRLVRKLDLANAERYAASPEEIERFDLRRLQPDGEIFLYRPRATAAAPTGYLGRTTIVEFLVMNDELRRAVMRRAGMGEIEQLARKSGMRTMYEDGLSKALRGETTIEEVLRVTEDA
partner: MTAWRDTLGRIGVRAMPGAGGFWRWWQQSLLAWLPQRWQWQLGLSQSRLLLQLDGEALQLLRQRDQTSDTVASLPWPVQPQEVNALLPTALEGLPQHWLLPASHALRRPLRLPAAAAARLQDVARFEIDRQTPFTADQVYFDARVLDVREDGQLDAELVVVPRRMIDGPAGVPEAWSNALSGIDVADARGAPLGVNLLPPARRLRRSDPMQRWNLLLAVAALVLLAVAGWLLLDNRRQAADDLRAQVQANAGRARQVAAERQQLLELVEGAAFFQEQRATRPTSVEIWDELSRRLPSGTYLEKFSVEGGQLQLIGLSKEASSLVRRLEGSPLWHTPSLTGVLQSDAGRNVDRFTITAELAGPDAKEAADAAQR

Variants of: B1
Details: with gspl_xancp pefL

Variant	effect of a mutation on the interaction
R504A	disrupting interaction
K331M	disrupting interaction
